Test results published in the RNAGym collection of RNA variant scans (doi:10.1073/pnas.2313332121).
This sample holds only a part of the variants without activity.

B1: TPR 5TU (parent)
chain: GGAUCUUCUCGAUCUAACAAAAAAGACAAAUCUGCCACAAAGCUUGAGAGCAUCUUCGGAUGCAGAGGCGGCAGCCUUCGGUGGCGCGAUAGCGCCAACGUUCUCAACUAUGACACGCAAAACGCGUGCUCCGUUGAAUGGAGUUUAUCAUG

Variants of: B1
Test: polymerase ribozyme fitness, log enrichment relative to wild type (log ratio); higher = more active; in vitro selection for triplet polymerase activity
Summary of the method: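 Mutant libraries were PCR-built and transcribed for each subunit of a heterodimeric triplet polymerase ribozyme and selected for one round in triplicate at −7 °C, frozen, before gel excision of extended constructs and streptavidin-bead capture. Input and output libraries were Illumina-sequenced, keeping genotypes with ≥10 input reads and ≥1 read per output. Fitness is a logarithmic ratio of genotype to wild-type enrichment, in base 2, using inverse-variance-weighted replicate averages.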

| Variant | polymerase ribozyme fitness (log ratio) |
| --- | --- |
| G126A C132G | -2.68 |
| U127G G136A | -2.89 |
| C103G U145G | -1.87 |
| U109G A142C | -2.18 |
| C131A | -1.77 |
| C131U | 1.18 |
| C131G | -2.79 |
| U102C U148C | -3.19 |
| A113C U134C A137C G140A U148G | ≤ -4.2 |
| A113C C118A | ≤ -4.2 |
| A115U G141C | -3.37 |
| C116U A121U G124U | -2.02 |
| A121U C132U U146A | -0.968 |
| C131G G136U G141U G143U | ≤ -4.2 |
| C118G U144A | -0.0459 |
| C114U U148G | -3.06 |
| G124U G143U U148G | ≤ -4.2 |
| A106G G117A | 0.816 |
| C103G A120U | -1.5 |
| C114G G140C G141U | ≤ -4.2 |
| U130C U144C A147C | -1.95 |
| A115G G141A | -0.426 |
| C103A A120C G124A U134A | -3.66 |
| C108U A115G | -3.94 |

| Variant | polymerase ribozyme fitness (log ratio) |
| --- | --- |
| A106G A142C | -0.922 |
| C116A U151C | -4.09 |
| A107G C132U G133U | -3.52 |
| A115C | -0.641 |
| A115U | -1.48 |
| A115G | -1 |
| C116U C125G | 1.23 |
| C114G | -2.54 |
| C114U | -1.75 |
| C114A | -2.72 |
| A122G G133U | -3.59 |
| C114U C125U | -3.33 |
| A120C G136U G140C | -4.19 |
| A113G U148A | -4.05 |
| C103A A142G | -2.71 |
| C103A A120G C131U A138U | -3.71 |
| C116G U146G | -0.306 |
| C103G G117U | -0.61 |
| A120U A121U U144G C149G | -3.46 |
| C129G U134G | -3.81 |
| U109A G141A A142U | ≤ -4.2 |
| A122G C125A U134G | -2.92 |
| A113G U134A | ≤ -4.2 |
| A121U C125U G143C U146C | -3.38 |

| Variant | polymerase ribozyme fitness (log ratio) |
| --- | --- |
| A120G G128U | -2.36 |
| A115U U146G | -2.23 |
| C103G A119C | -1.49 |
| A110U U127A | -4.06 |
| C116G A119U | 0.403 |
| G117U G143U | -2.57 |
| C132G | -3.15 |
| C132A | -2.06 |
| C132U | -0.687 |
| C118A A121C U144C | -0.821 |
| C103G A138G | -3.66 |
| U104A A137C | -3.89 |
| U102G U148A | -3.81 |
| A107C A110G A121G | ≤ -4.2 |
| U102G U104C U148A A150U | ≤ -4.2 |
| U109G C114G | -3.7 |
| U104G G141U | 0.973 |
| A106C G141A | -0.24 |
| C114U C131U | -1.64 |
| U102G U104C | ≤ -4.2 |
| G124U U135C | -2.36 |
| C108U A147C | -3.44 |
| C116U A122U | -0.326 |
| C105U A119U G140A U146G | -3.72 |

| Variant | polymerase ribozyme fitness (log ratio) |
| --- | --- |
| A106G A110U | -3.42 |
| A122G U144G | 0.851 |
| C118G C129U | -1.77 |
| C116U U146C | -0.11 |
| U104A | 0.0691 |
| U104G | -0.299 |
| U104C | 0.352 |
| C132U G152U | -2.75 |
| C118U G140U | -3.11 |
| C116U U148A | -3.85 |
| U102G G124A | -2.85 |
| C108A G143U U144G | ≤ -4.2 |
| A119U U127C | -2.06 |
| C116U C118A U139G | 0.554 |
| A110U G128A | ≤ -4.2 |
| C125U G141C | -3.85 |
| A115U A119G A138G | ≤ -4.2 |
| G126U C132U | -0.717 |
| A122U C149U | -0.616 |
| A122C G126A | -0.186 |
| G112U G141A U148G | ≤ -4.2 |
| A119U A137U | -4.12 |
| G126A G143A | -1.92 |
| U102G C105U C125U A150C | -4.12 |

| Variant | polymerase ribozyme fitness (log ratio) |
| --- | --- |
| C116A | 1.34 |
| C116G | 0.655 |
| C116U | 0.103 |
| C123A | -0.404 |
| C123U | 0.225 |
| C123G | -0.337 |
| C103G U144A | -2.15 |
| C129A U148G | -4.11 |
| G133A U134G | -2.81 |
| A122G U127A G128A | -4.01 |
| C118U U145A | -0.179 |
| C105U U109G G133C | -1.81 |
| C108G A122C | ≤ -4.2 |
| C129A G143A A150G | -3.66 |
| C118G A122C | -1.49 |
| U104C U135G | -3.31 |
| A120G A137C | -4.08 |
| U102C A150C | -4.08 |
| C125U G126A | -3.14 |
| A115C C123A | -1.17 |
| A113U A120G | -1.73 |
| C103A A115C | -2.54 |
| C103A A115U | -3.09 |
| C131U U144G | -0.864 |

| Variant | polymerase ribozyme fitness (log ratio) |
| --- | --- |
| G112C | -2.68 |
| G112U | -2.77 |
| G112A | -1.96 |
| C118U U146C | -1.27 |
| A122U U135C A137G | -3.91 |
| G124U A142C | -1.75 |
| U109G G133C | -2 |
| A121U C125U | -0.154 |
| C129A | -2.46 |
| C129U | -0.0537 |
| C129G | -2.45 |
| A115C U127C | -1.1 |
| C118U U148A | -2.79 |
| C118U U148G | -3.62 |
| A115U U148G | -4.15 |
| U104G U135C G143C | -3.79 |
| C105U A142C | -0.229 |
| A113G A138U | -3.79 |
| C105A A113U | ≤ -4.2 |
| C116U C125U U146C | -0.74 |
| A115U U134C | -1.19 |
| A119C G143A | -0.422 |
| U127G G141A | -3.27 |
| A122C C149U | -1.16 |

| Variant | polymerase ribozyme fitness (log ratio) |
| --- | --- |
| C118G A119G | 0.312 |
| C118A U144A | 0.0258 |
| C116G G140C | -3.81 |
| C125U A147U | -1.83 |
| A119G U146A | -0.399 |
| A120U U145C | -0.0409 |
| G117A C123A A150G | -1.18 |
| U127G A138G A142C | -3.48 |
| A106C C114A G140C G141C | ≤ -4.2 |
| U109G C116G | -0.501 |
| U109G C116A | -2.26 |
| C114U C118G | -2.88 |
| A110U | -3.57 |
| A110G | -2.42 |
| A106G | 0.398 |
| A106C | -0.467 |
| A106U | -0.23 |
| C123U G124A U144C | 0.0575 |
| A106G A115U | -1.05 |
| A115U G126A | -3.35 |
| C116U U135A | -0.565 |
| A120G G141A | 1.23 |
| G117U U145G | -3.12 |
